Assay results as given in the supplement of paper PMC9112550, “Optimization of the antimicrobial peptide Bac7 by deep mutational scanning” (BMC Biology, 2022).

The sequences below were run on Escherichia coli TOP10 (assay: shrunken log2 fold change of peptide-encoding DNA abundance (4.5 h post-induction vs induction); higher = less antimicrobial activity (less host growth inhibition)). Details: time post-induction: 4.5 h; library: site-saturation at positions 5, 18, 19, 20.
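Also: peptides expressed intracellularly from a pBAD plasmid library in pooled LB shake-flask culture, induced with 0.3% L-arabinose, DNA abundance read by NGS, three biological replicates, DESeq2 with apeglm shrinkage.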

| Sequence | shrunken log2 fold change |
| --- | --- |
| RRIRFRPPRLPRPRPRPAEAPRP | 0.254 |
| RRIRFRPPRLPRPRPRPAEGPRP | 0.234 |
| RRIRFRPPRLPRPRPRPAFGPRP | 0.21 |
| RRIRFRPPRLPRPRPRPAFIPRP | -0.274 |
| RRIRFRPPRLPRPRPRPAHGPRP | 0.418 |
| RRIRFRPPRLPRPRPRPAIEPRP | 0.519 |
| RRIRFRPPRLPRPRPRPAIQPRP | -0.102 |
| RRIRFRPPRLPRPRPRPAIWPRP | 0.195 |
| RRIRFRPPRLPRPRPRPAKNPRP | -0.0212 |
| RRIRFRPPRLPRPRPRPAKPPRP | 0.901 |
| RRIRFRPPRLPRPRPRPALMPRP | -0.0289 |
| RRIRFRPPRLPRPRPRPALNPRP | 0.0855 |
| RRIRFRPPRLPRPRPRPANHPRP | -0.264 |
| RRIRFRPPRLPRPRPRPANKPRP | -0.546 |
| RRIRFRPPRLPRPRPRPAQFPRP | 0.156 |
| RRIRFRPPRLPRPRPRPAQIPRP | -0.00279 |
| RRIRFRPPRLPRPRPRPAQPPRP | 0.277 |
| RRIRFRPPRLPRPRPRPATCPRP | 0.00724 |
| RRIRFRPPRLPRPRPRPAWKPRP | -0.284 |
| RRIRFRPPRLPRPRPRPAWSPRP | 0.116 |
| RRIRFRPPRLPRPRPRPAYDPRP | -0.293 |
| RRIRFRPPRLPRPRPRPAYPPRP | -0.412 |
| RRIRFRPPRLPRPRPRPCADPRP | -0.102 |
| RRIRFRPPRLPRPRPRPCAQPRP | -0.077 |
| RRIRFRPPRLPRPRPRPCDAPRP | -0.312 |

| Sequence | shrunken log2 fold change |
| --- | --- |
| RRIRFRPPRLPRPRPRPCDMPRP | -0.00291 |
| RRIRFRPPRLPRPRPRPCDYPRP | -0.112 |
| RRIRFRPPRLPRPRPRPCECPRP | -0.138 |
| RRIRFRPPRLPRPRPRPCENPRP | 0.015 |
| RRIRFRPPRLPRPRPRPCGTPRP | -0.207 |
| RRIRFRPPRLPRPRPRPCHHPRP | -0.0196 |
| RRIRFRPPRLPRPRPRPCHVPRP | 0.0269 |
| RRIRFRPPRLPRPRPRPCIMPRP | -0.953 |
| RRIRFRPPRLPRPRPRPCLMPRP | -0.379 |
| RRIRFRPPRLPRPRPRPCLRPRP | -0.205 |
| RRIRFRPPRLPRPRPRPCLTPRP | -0.134 |
| RRIRFRPPRLPRPRPRPCNCPRP | -0.166 |
| RRIRFRPPRLPRPRPRPCNDPRP | -0.122 |
| RRIRFRPPRLPRPRPRPCNRPRP | -0.111 |
| RRIRFRPPRLPRPRPRPCQLPRP | -0.938 |
| RRIRFRPPRLPRPRPRPCQQPRP | 0.0307 |
| RRIRFRPPRLPRPRPRPCSFPRP | -0.349 |
| RRIRFRPPRLPRPRPRPCSKPRP | -0.152 |
| RRIRFRPPRLPRPRPRPCSMPRP | -0.343 |
| RRIRFRPPRLPRPRPRPCSTPRP | -0.177 |
| RRIRFRPPRLPRPRPRPCTIPRP | -0.15 |
| RRIRFRPPRLPRPRPRPCVDPRP | 0.0365 |
| RRIRFRPPRLPRPRPRPCVQPRP | -0.182 |
| RRIRFRPPRLPRPRPRPCVVPRP | -0.379 |
| RRIRFRPPRLPRPRPRPCWKPRP | -0.0141 |

| Sequence | shrunken log2 fold change |
| --- | --- |
| RRIRFRPPRLPRPRPRPCYEPRP | -0.228 |
| RRIRFRPPRLPRPRPRPDCLPRP | -0.0266 |
| RRIRFRPPRLPRPRPRPDCNPRP | -0.179 |
| RRIRFRPPRLPRPRPRPDDNPRP | -0.137 |
| RRIRFRPPRLPRPRPRPDIVPRP | -0.0567 |
| RRIRFRPPRLPRPRPRPDKCPRP | -0.18 |
| RRIRFRPPRLPRPRPRPDLDPRP | -0.0913 |
| RRIRFRPPRLPRPRPRPDLPPRP | -0.0804 |
| RRIRFRPPRLPRPRPRPDNAPRP | -0.167 |
| RRIRFRPPRLPRPRPRPDNLPRP | 0.0632 |
| RRIRFRPPRLPRPRPRPDPEPRP | -0.0327 |
| RRIRFRPPRLPRPRPRPDPHPRP | 0.137 |
| RRIRFRPPRLPRPRPRPDPRPRP | 0.182 |
| RRIRFRPPRLPRPRPRPDRQPRP | 0.0398 |
| RRIRFRPPRLPRPRPRPDSYPRP | -0.236 |
| RRIRFRPPRLPRPRPRPDVVPRP | -0.181 |
| RRIRFRPPRLPRPRPRPEAAPRP | 0.965 |
| RRIRFRPPRLPRPRPRPEALPRP | 0.0209 |
| RRIRFRPPRLPRPRPRPEEHPRP | -0.0677 |
| RRIRFRPPRLPRPRPRPEENPRP | -0.00844 |
| RRIRFRPPRLPRPRPRPEEQPRP | 0.162 |
| RRIRFRPPRLPRPRPRPEGCPRP | 0.013 |
| RRIRFRPPRLPRPRPRPEGVPRP | -0.175 |
| RRIRFRPPRLPRPRPRPEIGPRP | -0.0537 |
| RRIRFRPPRLPRPRPRPEKYPRP | -0.397 |

| Sequence | shrunken log2 fold change |
| --- | --- |
| RRIRFRPPRLPRPRPRPELWPRP | 0.677 |
| RRIRFRPPRLPRPRPRPEMDPRP | -0.00136 |
| RRIRFRPPRLPRPRPRPEMLPRP | 0.0583 |
| RRIRFRPPRLPRPRPRPENFPRP | 0.0164 |
| RRIRFRPPRLPRPRPRPERDPRP | -0.0622 |
| RRIRFRPPRLPRPRPRPERQPRP | -0.000475 |
| RRIRFRPPRLPRPRPRPETWPRP | 0.0692 |
| RRIRFRPPRLPRPRPRPEVGPRP | 0.296 |
| RRIRFRPPRLPRPRPRPEYKPRP | -0.0678 |
| RRIRFRPPRLPRPRPRPFAAPRP | 0.114 |
| RRIRFRPPRLPRPRPRPFCSPRP | -0.486 |
| RRIRFRPPRLPRPRPRPFDNPRP | -0.31 |
| RRIRFRPPRLPRPRPRPFEVPRP | -0.571 |
| RRIRFRPPRLPRPRPRPFFIPRP | -0.429 |
| RRIRFRPPRLPRPRPRPFGYPRP | -0.113 |
| RRIRFRPPRLPRPRPRPFHEPRP | -0.649 |
| RRIRFRPPRLPRPRPRPFHIPRP | -0.663 |
| RRIRFRPPRLPRPRPRPFHLPRP | -0.391 |
| RRIRFRPPRLPRPRPRPFKCPRP | -2.13 |
| RRIRFRPPRLPRPRPRPFKKPRP | -0.119 |
| RRIRFRPPRLPRPRPRPFLYPRP | -1.04 |
| RRIRFRPPRLPRPRPRPFMIPRP | -0.456 |
| RRIRFRPPRLPRPRPRPFPFPRP | -0.177 |
| RRIRFRPPRLPRPRPRPFPMPRP | -0.0754 |
| RRIRFRPPRLPRPRPRPFQEPRP | -0.00353 |

| Sequence | shrunken log2 fold change |
| --- | --- |
| RRIRFRPPRLPRPRPRPFREPRP | -0.0914 |
| RRIRFRPPRLPRPRPRPFSSPRP | -0.468 |
| RRIRFRPPRLPRPRPRPFTQPRP | 0.0192 |
| RRIRFRPPRLPRPRPRPFTWPRP | -0.816 |
| RRIRFRPPRLPRPRPRPFVCPRP | -0.398 |
| RRIRFRPPRLPRPRPRPFVTPRP | -0.442 |
| RRIRFRPPRLPRPRPRPGAFPRP | -0.162 |
| RRIRFRPPRLPRPRPRPGATPRP | 0.357 |
| RRIRFRPPRLPRPRPRPGAWPRP | -0.15 |
| RRIRFRPPRLPRPRPRPGCDPRP | 0.106 |
| RRIRFRPPRLPRPRPRPGCLPRP | -0.0626 |
| RRIRFRPPRLPRPRPRPGDHPRP | 0.0283 |
| RRIRFRPPRLPRPRPRPGDKPRP | 0.215 |
| RRIRFRPPRLPRPRPRPGDNPRP | -0.0236 |
| RRIRFRPPRLPRPRPRPGEMPRP | 0.123 |
| RRIRFRPPRLPRPRPRPGEQPRP | -0.0185 |
| RRIRFRPPRLPRPRPRPGETPRP | 0.138 |
| RRIRFRPPRLPRPRPRPGIIPRP | -0.139 |
| RRIRFRPPRLPRPRPRPGIPPRP | -0.183 |
| RRIRFRPPRLPRPRPRPGIVPRP | -0.0228 |
| RRIRFRPPRLPRPRPRPGKSPRP | 0.0865 |
| RRIRFRPPRLPRPRPRPGLEPRP | -0.0646 |
| RRIRFRPPRLPRPRPRPGNFPRP | -0.133 |
| RRIRFRPPRLPRPRPRPGNKPRP | -0.344 |
| RRIRFRPPRLPRPRPRPGPRPRP | 0.618 |

| Sequence | shrunken log2 fold change |
| --- | --- |
| RRIRFRPPRLPRPRPRPGQPPRP | 0.199 |
| RRIRFRPPRLPRPRPRPGRMPRP | 0.0574 |
| RRIRFRPPRLPRPRPRPGSIPRP | -0.235 |
| RRIRFRPPRLPRPRPRPGTSPRP | -0.0716 |
| RRIRFRPPRLPRPRPRPGVDPRP | -0.145 |
| RRIRFRPPRLPRPRPRPGWDPRP | 0.0298 |
| RRIRFRPPRLPRPRPRPGYDPRP | -0.292 |
| RRIRFRPPRLPRPRPRPGYWPRP | 0.0724 |
| RRIRFRPPRLPRPRPRPHADPRP | 0.0798 |
| RRIRFRPPRLPRPRPRPHAEPRP | -0.00295 |
| RRIRFRPPRLPRPRPRPHCPPRP | -0.629 |
| RRIRFRPPRLPRPRPRPHCRPRP | -0.0499 |
| RRIRFRPPRLPRPRPRPHDFPRP | -0.199 |
| RRIRFRPPRLPRPRPRPHDLPRP | -0.203 |
| RRIRFRPPRLPRPRPRPHDPPRP | -0.1 |
| RRIRFRPPRLPRPRPRPHDWPRP | 0.0906 |
| RRIRFRPPRLPRPRPRPHEQPRP | 0.0928 |
| RRIRFRPPRLPRPRPRPHHKPRP | -0.462 |
| RRIRFRPPRLPRPRPRPHIKPRP | -0.793 |
| RRIRFRPPRLPRPRPRPHIPPRP | -0.289 |
| RRIRFRPPRLPRPRPRPHISPRP | -0.419 |
| RRIRFRPPRLPRPRPRPHLLPRP | -0.428 |
| RRIRFRPPRLPRPRPRPHLNPRP | -0.624 |
| RRIRFRPPRLPRPRPRPHLVPRP | -0.33 |
| RRIRFRPPRLPRPRPRPHMNPRP | -0.774 |
